Paper PMC8131759

Columns and labels:
[1] = target: bacteriophage P22 coat protein (CP), assembled as P22 virus-like particle capsid (bacteriophage P22) (UniProt P26747); assay: SEC-MALS; procapsid (PC) VLPs from co-expression of CP and AdhD-SP in E. coli, purified; also SDS-PAGE and TEM; cargo number calculated from the molar mass of the particles; 50 mM sodium phosphate, 100 mM sodium chloride, pH 7.0
[2] = target: bacteriophage P22 coat protein (CP), assembled as P22 virus-like particle capsid (bacteriophage P22) (UniProt P26747); assay: SEC-MALS; expanded (EX) VLPs made from PC by 3.5 mM SDS for 5 min at room temperature, then ultracentrifuged twice; also SDS-PAGE and TEM

UniProt P26747, sequence (P26747 whole entry): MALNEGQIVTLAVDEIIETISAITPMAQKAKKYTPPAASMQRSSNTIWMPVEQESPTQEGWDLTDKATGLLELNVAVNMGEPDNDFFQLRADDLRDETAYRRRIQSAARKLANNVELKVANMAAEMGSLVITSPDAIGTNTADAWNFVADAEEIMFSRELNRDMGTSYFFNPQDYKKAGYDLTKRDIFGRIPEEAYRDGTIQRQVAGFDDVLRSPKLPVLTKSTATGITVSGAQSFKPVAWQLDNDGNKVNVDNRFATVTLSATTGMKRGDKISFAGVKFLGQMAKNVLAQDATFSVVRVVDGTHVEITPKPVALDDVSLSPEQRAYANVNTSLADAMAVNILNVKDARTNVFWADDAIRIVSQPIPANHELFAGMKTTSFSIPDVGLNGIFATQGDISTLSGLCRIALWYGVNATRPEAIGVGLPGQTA

With “alcohol dehydrogenase-D (AdhD) fused to P22 scaffolding protein (AdhD-SP) (enzyme)” the stoichiometry N (AdhD per capsid) [1] was 204 and the stoichiometry N (AdhD-SP per VLP) [2] was 174.
